The values that follow come from patent US20040219155A1.

This test has as its target Fc gamma receptor (Fc(γ)R) on dendritic cells. In words: cell-based or functional assay.

monoclonal antibody 3G4 (ATCC PTA 4545) yielded a DC uptake of apoptotic tumor cells of 300%.
